Reference: EP1327680B1 (CHUGAI SEIYAKU KABUSHIKI KAISHA, dated 2008)

T1: human TPO receptor (MPL) expressed on Ba/F3 cells (human, UniProt P40238 26-635)
T1 sequence (looked up): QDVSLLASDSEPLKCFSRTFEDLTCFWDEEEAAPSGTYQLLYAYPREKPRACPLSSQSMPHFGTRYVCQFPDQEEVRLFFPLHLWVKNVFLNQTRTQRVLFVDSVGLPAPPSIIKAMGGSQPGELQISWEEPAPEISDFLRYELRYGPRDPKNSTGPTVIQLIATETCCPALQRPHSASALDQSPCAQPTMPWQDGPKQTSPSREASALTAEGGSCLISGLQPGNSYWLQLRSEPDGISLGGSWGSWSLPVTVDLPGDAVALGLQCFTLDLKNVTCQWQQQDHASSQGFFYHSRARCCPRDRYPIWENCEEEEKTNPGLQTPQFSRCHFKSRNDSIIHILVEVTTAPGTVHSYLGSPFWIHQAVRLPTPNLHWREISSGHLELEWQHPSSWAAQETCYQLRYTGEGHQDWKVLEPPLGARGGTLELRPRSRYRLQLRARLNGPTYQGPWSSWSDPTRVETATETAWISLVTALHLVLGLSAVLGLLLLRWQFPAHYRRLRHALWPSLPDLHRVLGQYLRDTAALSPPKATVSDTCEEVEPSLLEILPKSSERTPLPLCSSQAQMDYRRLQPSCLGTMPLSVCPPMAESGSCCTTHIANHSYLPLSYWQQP

B1: antibody 12B5 (IgG) (antibody, V domains shown)
VH: QVQLVQSGGGLVRPGGSLSLSCAVSGITLRTYGMHWVRQAPGKGLEWVAGISFDGRSEYYADSVQGRFTISRDSSKNTLYLQMNSLRAEDTAVYYCARGAHYGFDIWGQGTMVTVSS
VL: DIQMTQSPSTLSASIGDRVTITCRASEGIYHWLAWYQQKPGKAPKLLIYKASSLASGAPSRFSGSGSGTDFTLTISSLQPDDFATYYCQQYSNYPLTFGGGTKLEIK
B2: 12B5Fab fragment (Fab, V domains shown)
VH: B1 VH
VL: B1 VL
B3: reconstructed 12B5 single chain Fv (sc12B5), culture supernatant of COS-7 cells (scFv)
scFv: QVQLVQSGGGLVRPGGSLSLSCAVSGITLRTYGMHWVRQAPGKGLEWVAGISFDGRSEYYADSVQGRFTISRDSSKNTLYLQMNSLRAEDTAVYYCARGAHYGFDIWGQGTMVTVSSGGGGSGGGGSGGGGSDIQMTQSPSTLSASIGDRVTITCRASEGIYHWLAWYQQKPGKAPKLLIYKASSLASGAPSRFSGSGSGTDFTLTISSLQPDDFATYYCQQYSNYPLTFGGGTKLEIKDYKDDDDK
B4: sc12B5 monomer (scFv)
scFv: B3 scFv
B5: sc12B5 dimer (scFv)
scFv: B3 scFv

Key:
[1] = biological target: human TPO receptor (MPL) expressed on Ba/F3 cells (human) (UniProt P40238); assay: cell-based or functional assay
[2] = biological target: T1, human TPO receptor (MPL) expressed on …; assay: cell-based or functional assay

Row | Molecule | ED50, agonist activity, proliferation of BaF/mpl cells (WST-8) [1] | ED50, TPO-like agonist activity, proliferation of BaF/mpl cells (WST-8) [2] | agonist activity, fold against monovalent sc12B5 [2]
1 | human TPO (R&D Systems) (from UniProt P40225 22-353) (ligand) | 0.027 nM | – | –
2 | B1 | – | 29 nM | –
3 | B2 | – | 34700 nM | –
4 | B3 | – | 75 nM | –
5 | B4 | – | 4440 nM | –
6 | B5 | – | 10.1 nM | ~400 fold
